For series [1], the target named is T1, NF-kappaB p50 (Homo sapiens, UniProt P19838 P19838:1-433). Kind of series: competition; decoy without NF-kB site did not compete. Conditions: tags: Promega; chain copies: 2. Here is the method:
(§1) The fluorescence value was measured using a real-time PCR apparatus Rotor-Gene 2000 (Corbett Life Science).

Series [2] addresses T2, SP1 (Homo sapiens, UniProt P08047 P08047:2-785). Briefly: competition; NF-kB decoy did not affect SP1/DNA signal. The settings on record: tags: Promega. The protocol:
(§2) A mixed solution of 31F/42 and 05C/08 (40 fmol each), 800 fmol of the decoy (NF01/02 or SP01/02), a solution of a protein mixture (2.5 pmol of recombinant human SP1 and 0.125 pmol of recombinant human NFκB p50) were mixed into a reaction solution (10 mM HEPES-NaOH pH 7.9, 50 mM KCl, 0.1 mM EDTA, 5 mM DTT, 10% glycerol, 0.05% IGEPAL CA-630, 15 μL) and reacted at 25° C. for 30 minutes. A mixed solution of 32D/41 and 06B/07 (80 fmol each) was added thereto, and 50 μL of the resulting mixture was then reacted at 25° C. for 120 minutes. The fluorescence values of fluorescein and Cy3 were measured using a fluorescence plate reader Ultra (Tecan Group Ltd.). The fluorescein was excited at 485 nm, and its fluorescence was measured at 535 nm. The Cy3 was excited at 535 nm and its fluorescence was measured at 595 nm.

Series [3] deals with T1, NF-kappaB p50. Briefly: competition; decoy restored strand exchange. Conditions: tags: Promega; chain copies: 2. Here is the method:
as §1

For series [4], the target named is T1, NF-kappaB p50. Briefly: competition; SP1 decoy did not affect NF-kB/DNA signal. The settings on record: tags: Promega; chain copies: 2. Here is the method:
as §2

For series [5], the target named is T2, SP1. Briefly: competition; decoy lowered only SP1/DNA signal. Conditions: tags: Promega. The protocol: as §2

T1 sequence (P19838 1-433, one chain of several): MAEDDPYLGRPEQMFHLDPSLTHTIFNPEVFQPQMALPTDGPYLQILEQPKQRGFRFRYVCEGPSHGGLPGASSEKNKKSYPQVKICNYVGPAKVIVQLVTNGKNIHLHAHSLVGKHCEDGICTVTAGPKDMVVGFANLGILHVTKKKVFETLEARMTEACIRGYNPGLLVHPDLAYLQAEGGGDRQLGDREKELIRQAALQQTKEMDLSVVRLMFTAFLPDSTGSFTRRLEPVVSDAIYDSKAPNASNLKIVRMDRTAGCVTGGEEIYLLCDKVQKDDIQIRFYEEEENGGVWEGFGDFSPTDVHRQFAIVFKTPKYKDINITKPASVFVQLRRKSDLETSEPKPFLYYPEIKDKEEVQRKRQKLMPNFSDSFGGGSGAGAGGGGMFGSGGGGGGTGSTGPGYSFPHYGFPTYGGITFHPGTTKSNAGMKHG
T2 sequence (P08047 2-785, one chain of several): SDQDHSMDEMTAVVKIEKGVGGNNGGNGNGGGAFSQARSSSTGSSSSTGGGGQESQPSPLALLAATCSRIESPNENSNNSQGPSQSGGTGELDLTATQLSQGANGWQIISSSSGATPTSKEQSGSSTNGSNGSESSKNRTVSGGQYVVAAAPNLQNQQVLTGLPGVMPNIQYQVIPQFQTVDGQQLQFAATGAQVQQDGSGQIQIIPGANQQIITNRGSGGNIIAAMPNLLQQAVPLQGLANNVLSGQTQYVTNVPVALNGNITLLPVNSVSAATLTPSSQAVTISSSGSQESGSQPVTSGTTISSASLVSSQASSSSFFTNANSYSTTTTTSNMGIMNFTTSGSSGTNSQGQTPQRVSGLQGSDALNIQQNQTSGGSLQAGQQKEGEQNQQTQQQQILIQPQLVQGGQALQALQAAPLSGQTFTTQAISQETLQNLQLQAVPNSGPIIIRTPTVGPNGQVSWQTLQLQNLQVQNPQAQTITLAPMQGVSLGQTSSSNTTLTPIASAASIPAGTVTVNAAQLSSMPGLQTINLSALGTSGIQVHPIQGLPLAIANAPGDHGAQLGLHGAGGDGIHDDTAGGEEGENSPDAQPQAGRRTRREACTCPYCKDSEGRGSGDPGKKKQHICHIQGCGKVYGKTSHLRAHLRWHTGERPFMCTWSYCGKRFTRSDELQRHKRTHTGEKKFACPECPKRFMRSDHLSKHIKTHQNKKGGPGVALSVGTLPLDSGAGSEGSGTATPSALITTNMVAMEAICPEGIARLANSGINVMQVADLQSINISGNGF

B1: APcpt decoy (dsDNA)
DNA 1: GGTGTCATGAGTCAGCTCGGAG
DNA 2: CTCCGAGCTGACTCATGACACC
Regarding B1, the binding result in the series with NF-kappaB p50 [1] is reported as “no binding”.

B2: NFcpt decoy (NF01/02) (dsDNA)
DNA 1: GCACTAGGGACTTTCCGCCACG
DNA 2: CGTGGCGGAAAGTCCCTAGTGC
Consider B2, for which the results for the binding result with SP1 [2] and with NF-kappaB p50 [3] were “no binding” and “binds”, respectively.

B3: SP01/02 decoy (dsDNA)
DNA 1: TCGAGCGGGGCGGGGCGACGAA
DNA 2: TTCGTCGCCCCGCCCCGCTCGA
Turning to B3, the binding result is “no binding” with NF-kappaB p50 [4] and “binds” with SP1 [5].
